# Reference: patent publication US20040198650A1, “Means for inhibiting proteolytical processing of parkin” (priority 2001, published 2004)
# Where a chain is given by its changes, count along the chain named. Names may count otherwise. “Also recorded” adds a separate entry of the source.
# B1: D126E: human Parkin with Asp 126 substituted by Glu (SEQ ID NO: 4) (protein, listed as Homo sapiens)
# chain: MIVFVRFNSSHGFPVEVDSDTSIFQLKEVVAKRQGVPADQLRVIFAGKELRNDWTVQNCDLDQQSIVHIVQRPWRKGQEMNATGGDDPRNAAGGCEREPQSLTRVDLSSSVLPGDSVGLAVILHTESRKDSPPAGSPAGRSIYNSFYVYCKGPCQRVQPGKLRVQCSTCRQATLTLTQGPSCWDDVLIPNRMSGECQSPHCPGTSAEFFFKCGAHPTSDKETSVALHLIATNSRNITCITCTDVRSPVLVFQCNSRHVICLDCFHLYCVTRLNDRQFVHDPQLGYSLPCVAGCPNSLIKELHHFRILGEEQYNRYQQYGAEECVLQMGGVLCPRPGCGAGLLPEPDQRKVTCEGGNGLGCGFAFCRECKEAYHEGECSAVFEASGTTTQAYRVDERAAEQARWEAASKETIKKTTKPCPRCHVPVEKNGGCMHMKCPQPQCRLEWCWNCGCEWNRVCMGDHWFDV
# modifications: mat_peptide (1)..() Parkin with a D126E mutation
# B2: Parkin: wild type human Parkin protein (SEQ ID NO: 2) (protein, listed as Homo sapiens)
# chain: B1 chain with E126D, S223P
# modifications: mat_peptide (1)..() Native Parkin
# B3: DD86, 87EE: human Parkin double mutant, Asp 86 and 87 substituted by Glu (protein)
# chain: B1 chain with D86E, D87E, E126D, S223P
# B4: D115E: human Parkin with Asp 115 substituted by Glu (protein)
# chain: B1 chain with D115E, E126D, S223P
# B5: D105E: human Parkin Asp to Glu mutant (position printed as 105 and 106) (protein)
# chain: B1 chain with D106E, E126D, S223P
# B6: D130E: human Parkin with Asp 130 substituted by Glu (protein)
# chain: B1 chain with E126D, D130E, S223P
# Key:
# [1] = tested on: K3-CHO and Park8-SH-SY5Y cells expressing human Parkin; assay: Parkin cleavage during cellular apoptosis, induction verified by PARP immunoblot, in Parkin expressing cell lines; assay type: cell-based
# Text: Parkin cleavage during cellular apoptosis. […] Lanes 1-4, 6 were probed with T160, lane 5 with PAR-N1 and lane 7 with PAR-C1. The molecular weight is indicated to the left for Parkin (51 kDa) and the Parkin peptides (38 kDa and 11,5 kDa, respectively). The induction of apoptosis was verified biochemically by testing the binding of the same membranes with the mouse monoclonal poly-ADP-ribose (PARP) antibody 66401 A (Pharmigen). […] The generation of the 86 kDa PARP fragment is a recognised marker for apoptosis associated proteolysis.
# The stably transfected Parkin expressing cell lines, K3-CHO (FIG. 3, lanes 1-5) and Park8-SH-SY5Y (FIG. 3, lanes 6, 7) were extracted and prepared for immunoblotting as described in example 2. […] FIG. 3, lanes 1-4, 6 were probed with T160, lane 5 with PAR-N1 and lane 7 with PAR-C1 antibodies. The molecular weight is indicated to the left for Parkin (51 kDa) and the Parkin peptides (38 kDa and 11,5 kDa, respectively). […]
# [2] = tested on: apoptosis-associated Parkin cleavage in K3 CHO cells expressing human Parkin; assay: Caspase inhibitors on okadaic acid-induced, apoptosis-associated Parkin cleavage in K3 CHO cells (T160 immunoblot); assay type: cell-based, Chinese hamster; settings: 10 microM inhibitor, 200 nM okadaic acid for 16 h
# Procedure: K3 CHO cells were treated with 200 nM okadaic acid for 16 h (lanes 2-4) in the presence of 10 microM of the caspase inhibitors YVAD-chloromethylketone (lane 3) and DEVD-chloromethylketone (lane 4). The control cells treated with the DMSO used for solubilising the caspase inhibitors are shown in lane 2. Lane 1 represents non-treated control cells. […] Similar data was obtained in the Park8 SH-SY5Y cells.
# The parental cell lines and the Parkin expressing cell lines were extracted in 8 M urea, 1% Triton X 100.20 microgram protein was supplemented to 2% sodium dodecylsulphate, 20 mM dithioerythreitol, 20 mM Tris, pH 6.5, 20% glycerol, heated to 95° C. for 5 min, whereafter the mixture was resolved by 10-20% gradient sodium dodecylsulphate polyacrylamide gelelectrophoresis. The proteins in the gel were electroblotted onto a nitrocellulose membrane and non-specific protein binding was blocked by incubating the membrane in block solution (20 mM Tris, pH 7.4, 130 mM NaCl, 0.5% Triton X100, 5% skimmed milk powder) for 2 hours. The membrane was subsequently incubated with primary antibody (PAR-N1, PAR-C1 and T160 diluted 1/500 in block solution) for 2 hours, rinsed in 20 mM Tris, pH 7.4, 130 mM NaCl, 0.5% Triton X100 and incubated with a second antibody (horse radish peroxidase conjugated swine anti rabbit serum) for 1 hour and rinsed. The bound antibody was then visualised by chemilumenescense according to the manufacturers recommendation (ECL, Amersham Pharmacia Biotech). FIG. 2 panel B, lanes 1 and 5 represent the non-transfected CHO and SH-SY5Y cell lines, respectively. FIG. 2, panel B, lanes 24 represents Parkin expressing CHO cells K3 and lane 6 represents the Parkin expressing SH-SY5Y cell Park 8. Lanes 1, 2, 5 and 6 were incubated with T160, lane 3 with PAR-Ni and lane 4 with PAR-C1. The molecular size marker is indicated to the left in kDa.
# K3-CHO cells were treated with 200 nM okadaic acid for 16 h prior to extraction and processing for T160 immunoblot as described in example 2. […]
# [3] = tested on: CHO and SH-SY5Y cell lines; assay: Cytoprotection against mercaptoethanol-induced unfolded protein stress (DAPI count of dead cells); assay type: cell-based; settings: 3 mM mercaptoethanol for 24h
# Procedure: Mercaptoethanol is a known inducer of unfolded protein stress by inhibiting the normal formation of disulfide bonds in the endoplasmic reticulum.
# CHO and SH-SY5Y cell lines were cultured expressing wild type Parkin, D126E Parkin and an empty vector with 3 mM mercaptoethanol for 24h. They were stained with DNA binding fluorescent dye DAPI and fixed in ice cold methanol prior to drying.
# [4] = tested on: apoptosis-associated (caspase) cleavage of human Parkin; assay: Site directed mutagenesis of Parkin Asp residues: apoptosis-associated cleavage in stably transfected CHO and SH-SY5Y cell lines (T160 immunoblot); assay type: cell-based; settings: 200 nanoM okadaic acid for 16 h
# Text: Site directed mutagenesis of […] 126 in parkin to a glutamate residue reduce the apoptosis associated cleavage of parkin. Caspases are proteinases that always cleave after an Asp residue and FIG. 3 indicated the cleavage takes place within the N-terminal 150 amino acid residues. We mutagenised the parkin expression vector to express human parkin where the Asp in the positions 86 plus 87,106, 115, 126 and 130 were substituted with and Glu. CHO and SHSY5Y cell lines were stably transfected with the expression vectors and used for testing the effect of the mutations on apoptosis-associated parkin cleavage. These cells and the cell lines expressing the normal Parkin were treated with 200 nanoM okadaic acid for 16 h and extracted for T160 immunoblotting. The CHO cell lines are represented in lanes 1-6 and the SH-SY5Y cell lines in lanes 7-12. Wild type Parkin is represented in lanes 1, 2, 7, 8; D126E in lanes 3, 4, 9, 10; D130E in lanes 5, 6, 11, 12. Lanes 1, 3, 5, 7, 9, 11 represent untreated cells and lanes 2, 4, 6, 8, 10, 12 represent okadaic treated cells. The positions of the 51 kDa and 38 kDa Parkin proteins are indicated by the upper and lower left arrows.
# Caspases are proteinases that always cleave after an Asp residue. Cell lines were generated where Asp residues were changed to Glu residues to test if this amino acid position might represent the caspase cleavage sites. The Parkin expression vector used for generating the Parkin expressing K3 CHO and Park8 SH-SY5Y cell lines was changed by PCR mediated site directed mutagenesis so the nucleotide No.479 was changed from a cytosine to an adenine (ParkinD126E). The cDNA encoding Parkin was kindly provided by Dr. Mizuno, Juntendo University School of Medicine, Japan. The Parkin cDNA was PCR amplified using the primers: […]
# The amplified Parkin cDNA was cloned into the Nhe I and EcoR I site of the pcDNA3.1/Zeo(−) vector and the Parkin cDNA sequence was checked by sequencing. To prepare the D126E mutant, the inventors performed site-directed mutagenesis using the Quickchange Mutagenesis Kit (Stratagene) according to the manufactures instructions. Complementary strands of the oligonucleotide: 5′-[…]-3′ were used for preparing the D126E mutated construct. Parkin vectors containing Parkin mutated for D130E and DD86, 87EE were constructed by analogous techniques. This vector was then transfected into SH-SYSY or CHO cells using FUGENE6 (Boehringer Mannheim) and stably transfected cell lines were selected using 25 microgram Zeocinl ml medium (SH-SY5Y cells) or 300 microgram Zeocin/ml medium (CHO cells). The sequences of the vectors were verified by DNA sequencing. The expression vectors were used to generate the stably transfected DD86, 87EE, D126E and D130E CHO and SH-SY5Y cell lines expressing Parkin protein with the indicated substitutions of amino acids. These cells and the cell lines expressing the normal Parkin were treated with 200 nanoM okadaic acid for 16 h and extracted for T160 immunoblotting. The CHO cell lines are represented in lanes FIG. 5, 1-6 and the SH-SY5Y cell lines in lanes 7-12. Wild type Parkin is represented in lanes 1, 2, 7, 8; D126E in lanes 3, 4, 9, 10; D130E in lanes 5, 6, 11, 12. Lanes 1, 3, 5, 7, 9, 11 represent untreated cells and lanes 2, 4, 6, 8, 10, 12 represent okadaic treated cells. The positions of the 51 kDa and 38 kDa Parkin proteins are indicated by the upper and lower left arrows.
# [5] = tested on: CHO and SH-SY5Y cell lines; settings: cell death induced by 3 mM mercaptoethanol; Imai et al. 2000, FIG. 4A; cited from earlier work
molecule,measurement,setting,value
CC[C@@]1(O)C(=O)OCc2c1cc1n(c2=O)Cc2cc3ccccc3nc2-1 [campthotecin],Induction of apoptosis (generation of caspase 3 generated 86 kDa PARP fragment),"[1]; 5 microgram/ml for 30 hours, K3-CHO",86 kDa fragment was generated
OCCS [mercaptoethanol],Parkin cleavage after D126 following induced cell death,[1]; T160 immunoblotting as in example 3,followed by Parkin cleavage after D126
C=C1[C@@H](O)[C@@H]2O[C@]3(CC[C@H](/C=C/[C@@H](C)[C@@H]4CC(C)=C[C@@]5(O[C@H](C[C@@](C)(O)C(=O)O)CC[C@H]5O)O4)O3)CC[C@H]2O[C@@H]1[C@@H](O)C[C@H](C)[C@H]1O[C@@]2(CCCCO2)CC[C@H]1C [okadaic acid],Induction of apoptosis (generation of caspase 3 generated 86 kDa PARP fragment),[1]; 200 nM for 16 hours,86 kDa fragment was generated
YVAD-chloromethylketone,Effect on apoptosis-associated Parkin cleavage (51 kDa Parkin to 38 kDa fragment),[2],cleavage is abrogated
same,Effect on apoptosis-associated Parkin cleavage (51 kDa Parkin to 38 kDa fragment),[2]; listed as WAD-chloromethylketone,abrogate the cleavage
DEVD-chloromethylketone,Effect on apoptosis-associated Parkin cleavage (51 kDa Parkin to 38 kDa fragment),[2],abrogate the cleavage; also recorded: cleavage is abrogated
B1,Survival of cells expressing the Parkin variant compared to wild type Parkin,[3],enhanced survival
same,Apoptosis-associated cleavage of mutated Parkin compared to wild type,[4],abrogated the cleavage; also recorded: drastically reduced parkin cleavage
B2,Protection against cell death by Parkin expression,[5],approximately 50%
B3,Apoptosis-associated cleavage of mutated Parkin compared to wild type,[4],no significant effect; also recorded: cleavage as the WT parkin
B4,Apoptosis-associated cleavage of mutated Parkin compared to wild type,[4],cleavage as the WT parkin
B5,Apoptosis-associated cleavage of mutated Parkin compared to wild type,[4],cleavage as the WT parkin
B6,Apoptosis-associated cleavage of mutated Parkin compared to wild type,[4],no significant effect; also recorded: cleavage as the WT parkin
